Measurements: patent US20090087417A1, “METHODS FOR PROMOTING DOPAMINERGIC NEURONAL DEVELOPMENT BY USING NG4A-SUBFAMILY AND WNT-LIGANDS” (priority 2002, published 2009)

B1: Wnt-1: Partially purified conditioned media from stable fibroblast cell line engineered to secrete Wnt-1 ligand (protein)
chain: ANSSGRWWGIVNIASSTNLLTDSKSLQLVLEPSLQLLSRKQRRLIRQNPGILHSVSGGLQSAVRECKWQFRNRRWNCPTAPGPHLFGKIVNRGCRETAFIFAITSAGVTHSVARSCSEGSIESCTCDYRRRGPGGPDWHWGGCSDNIDFGRLFGREFVDSGEKGRDLRFLMNLHNNEAGRTTVFSEMRQECKCHGMSGSCTVRTCWMRLPTLRAVGDVLRDRFDGASRVLYGNRGSNRASRAELLRLEPEDPAHKPPSPHDLVYFEKSPNFCTYSGRLGTAGTAGRACNSSSPALDGCELLCCGRGHRTRTQRVTERCNCTFHWCCHVSCRNCTHTRVLHECL
modifications: left off: small tags and cut ends
B2: Wnt-5a: Partially purified conditioned media from stable fibroblast cell line engineered to secrete Wnt-5a ligand (protein)
chain: IIGAQPLCSQLAGLSQGQKKLCHLYQDHMQYIGEGAKTGIKECQYQFRHRRWNCSTVDNTSVFGRVMQIGSRETAFTYAVSAAGVVNAMSRACREGELSTCGCSRAARPKDLPRDWLWGGCGDNIDYGYRFAKEFVDARERERIHAKGSYESARILMNLHNNEAGRRTVYNLADVACKCHGVSGSCSLKTCWLQLADFRKVGDALKEKYDSAAAMRLNSRGKLVQVNSRFNSPTTQDLVYIDPSPDYCVRNESTGSLGTQGRLCNKTSEGMDGCELMCCGRGYDQFKTVQTERCHCKFHWCCYVKCKKCTEIVDQFVCK
modifications: left off: small tags and cut ends
B3: Wnt-2: Partially purified / conditioned media from Wnt-2 overexpressing fibroblast cell line (protein, UniProt P21552 26-360, looked up)
Protein Wnt-2: SWWYMRATGGSSRVMCDNVPGLVSRQRQLCHRHPDVMRAIGLGVAEWTAECQHQFRQHRWNCNTLDRDHSLFGRVLLRSSRESAFVYAISSAGVVFAITRACSQGELKSCSCDPKKKGSAKDSKGTFDWGGCSDNIDYGIKFARAFVDAKERKGKDARALMNLHNNRAGRKAVKRFLKQECKCHGVSGSCTLRTCWLAMADFRKTGDYLWRKYNGAIQVVMNQDGTGFTVANKRFKKPTKNDLVYFENSPDYCIRDREAGSLGTAGRVCNLTSRGMDSCEVMCCGRGYDTSHVTRMTKCECKFHWCCAVRCQDCLEALDVHTCKAPKSADWATPT
modifications: conditioned medium
notes: Partially purified / conditioned media from Wnt-2 overexpressing fibroblast cell line
B4: Wnt-7a: Partially purified / conditioned media from Wnt-7a overexpressing fibroblast cell line (protein, UniProt P24383 32-349, looked up)
Protein Wnt-7a: LGASIICNKIPGLAPRQRAICQSRPDAIIVIGEGSQMGLDECQFQFRNGRWNCSALGERTVFGKELKVGSREAAFTYAIIAAGVAHAITAACTQGNLSDCGCDKEKQGQYHRDEGWKWGGCSADIRYGIGFAKVFVDAREIKQNARTLMNLHNNEAGRKILEENMKLECKCHGVSGSCTTKTCWTTLPQFRELGYVLKDKYNEAVHVEPVRASRNKRPTFLKIKKPLSYRKPMDTDLVYIEKSPNYCEEDPVTGSVGTQGRACNKTAPQASGCDLMCCGRGYNTHQYARVWQCNCKFHWCCYVKCNTCSERTEMYTCK
modifications: conditioned medium
notes: Partially purified / conditioned media from Wnt-7a overexpressing fibroblast cell line

System: E14.5 VM precursor cultures
Assay: Real time RT-PCR of gene expression in Wnt-treated VM precursor cultures
Type: cell-based, rat
Conditions: 3 days in vitro
Source text: Total RNA was isolated from confluent T1A astrocyte cultures derived from ventral mesencephalon, dorsal mesencephalon and cortex of P1 rats and from tissue dissected from E10.5, E11.5, E13.5, E15.5 and P1 ventral and dorsal mesencephalon, and E14, E16, E18 and P1 cortex, using RNeasy extraction kit (Qiagen, Hilden, Germany). Total RNA was also extracted from E14.5 VM precursor cultures (7.5 million cells in 100 mm dishes) treated with wnts for 3 days in vitro (triplicate determination). For the reverse transcription, […] of total RNA was initially treated with 1 unit RQ1 Rnase-free DNAse (Promega, Madison, USA) for 40 minutes. The DNAse was inactivated by the addition of 1 μl of EDTA 0.02M and incubation at 65° C. for 10 minutes. 0.5 μg random primers (Life Technologies, Grand Island, N.Y., USA) were then added, and the mixture was incubated at 70° C. for 10 minutes. Each sample was then equally divided in two tubes, a cDNA reaction tube and a negative control tube. A master mix containing 1× First-Strand Buffer (Life Technologies, Grand Island, N.Y., USA), 0.01M DTT (Life Technologies, Grand Island, N.Y., USA) and 0.5 mM dNTPS (Promega, Madison, USA) was then added to both cDNA and RT− tubes and incubated at 25° C. for 10 minutes, followed by a 2 minutes incubation at 42° C. 200 units of Superscript II reverse transcriptase (Life Technologies, Grand Island, N.Y., USA) were then added only to the cDNA tubes and all sample were incubated at 42° C. for 50 minutes. Superscript II was inactivated with an incubation for 10 minutes at 70° C. Both cDNA and RT− were then diluted 10 times, for further analysis.
Real-time PCR was performed in triplicates, with 1 μl 1:10 diluted cDNA and RT−, in a total volume of 25 μl. Each PCR reaction consisted on 1×PCR buffer (Life Technologies, Grand Island, N.Y., USA), 3 mM MgCl2 (Life Technologies, Grand Island, N.Y., USA), 0.2 mM dNTPs (Promega, Madison, USA), 0.3 μM each of the forward and reverse primers, 1 unit Platinum Taq DNA polymerase (Life Technologies, Grand Island, N.Y., USA) and 1×SYBR Green (Molecular Probes, Leiden, The Netherlands). The PCR was performed at 94° C. for 2 min and then for 35-40 cycles at 94° C. for 30 s, at 60° C. for 30-45 s, at 72° C. for 45-60 s and at 80° C. for 15 s (for SYBR Green detection) on the ABI PRISM 5700 Detection System (PE Applied Biosystems, Foster City, Calif., USA). Other annealing temperatures included 54° C. for Wnt 5a, 57° C. for p27, 62° C. for Cyclin D1, 61° C. for Cyclin D2 and 65° C. for p57. A melting curve was obtained for each PCR product after each run, in order to confirm that the SYBR Green signal corresponded to a unique and specific amplicon. The specificity of the PCR product was verified by sequencing.
Standard curves were generated in every 96-wells plate real time PCR run, using serial 3-fold dilutions of a reverse transcribed RNA or plasmid containing the sequence of interest for every probe. The resulting standard curve plots were then used to convert the Cts (number of PCR cycles needed for a given template to be amplified to an established fluorescence threshold) into arbitrary quantities of initial template of a given sample.
The expression levels were obtained by subtracting the RT− value for each sample from the corresponding RT+ value and then dividing that number by the value of the house-keeping gene, 18S, obtained for every sample in parallel assays.
Statistical analysis of the results was performed by one way ANOVA. Fisher's protected least significant difference was used post hoc to identify specific points at which the different developmental stages differed from the earliest, only when significant interactions occurred. Significance for all tests was assumed at the level of p<0.05 (*p<0.05; **p<0.001; ***p<0.000).

| Molecule | c-ret expression | cyclin D1 mRNA | cyclin D2 mRNA | cyclin D3 mRNA | expression of GFR[…]1 | expression of NCAM | p21 mRNA expression | p27 mRNA | p57 mRNA | Ptx3 mRNA |
| --- | --- | --- | --- | --- | --- | --- | --- | --- | --- | --- |
| B1 | not | upregulated | not affected | upregulated | repressed | repressed | neither affected | downregulated | downregulated |  |
| B2 | upregulated | not | not affected | not | maintained | maintained | neither affected |  | not | increased |
| B3 |  | slight upregulation | increases | No regulation |  |  |  | increases | increases |  |
| B4 |  | increased | not regulated | No regulation |  |  |  | decreased | decreased |  |
